Test results from patent US7135319 (Pfizer, dated 2006).

Molecular target: T1, B. subtilis Acyl Carrier Protein Synthase (ACPS), holo-[acyl carrier protein] synthase (B. subtilis, UniProt P96618 3-121, limits assumed)
T1 construct: A trimer of ACPS was the molecular replacement probe; three ACPS molecules per asymmetric unit; also called A1; B1
T1 sequence: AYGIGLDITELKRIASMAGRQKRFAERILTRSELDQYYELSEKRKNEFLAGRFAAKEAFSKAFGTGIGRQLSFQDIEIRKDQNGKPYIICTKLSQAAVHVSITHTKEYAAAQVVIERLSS
Assay: gel filtration of the mixed proteins, complex purified and crystallized
Protocol: Crystallization of ACPS with ACP Purified ACP and ACPS were mixed at a 1:1.1 molar ratio and the mixture was loaded onto a gel filtration column. The resulting purified complex was dialyzed against a solution containing 50 mM Bis-Tris pH 6.4, 100 mM NaCl, 10 mM MgCl_2, and 10 mM DTT before concentrating the complex to ~10 mg/mL. Crystallization conditions for the ACP/ACPS complex were also determined using the sparse matrix screens available from both Hampton Research and Emerald Biostructures. Screens were set up with 2 μL drops at both 18° C. and 4° C. Optimization of a crystalline hit (0.2M Potassium Formate, 20% PEG 3350) gave diffraction quality rod shaped crystals. Crystals could be obtained between 0.15M and 0.3M Potassium Formate and between 15 and 23% PEG 3350. The rate of growth seriously affected the quality of crystals with the optimal crystals being formed between 8 and 12 days after setup. The crystals were grown with a 1:2 drop ratio of protein to well solution at 18° C. These crystals belonged to space group C222_1 with unit cell parameters a=78.46, b=122.03, c=136.77 Å and contained three molecules of ACPS and three molecules of ACP in the asymmetric unit.

B1: B. subtilis Acyl Carrier Protein (ACP), holo form (other)
chain: GPLGSADTLERVTKIIVDRLGVDEADVKLEASFKEDLGADSLDVVELVMELEDEFDMEISDEDAEKIATVGDAVNYIQNQQ
modifications: phosphopantetheinyl group attached to the O-gamma of Ser-36
notes: also called holo-ACP; AP1
binding result: binds
